This note sets out measurements from article PMC6849348, “Theranostic Application of a Novel G-Quadruplex-Forming DNA Aptamer Targeting Malate Synthase of Mycobacterium tuberculosis” (Molecular Therapy. Nucleic Acids, 2019).

This series has as its target malate synthase (MS, GlcB) (Mycobacterium tuberculosis) (UniProt P9WK17). Put plainly: SPR. On the technique in general: In SPR one partner is held on a chip, and binding of the other changes the refractive index at the surface.

Chain of malate synthase (MS, GlcB) (Mycobacterium tuberculosis) (P9WK17 whole entry): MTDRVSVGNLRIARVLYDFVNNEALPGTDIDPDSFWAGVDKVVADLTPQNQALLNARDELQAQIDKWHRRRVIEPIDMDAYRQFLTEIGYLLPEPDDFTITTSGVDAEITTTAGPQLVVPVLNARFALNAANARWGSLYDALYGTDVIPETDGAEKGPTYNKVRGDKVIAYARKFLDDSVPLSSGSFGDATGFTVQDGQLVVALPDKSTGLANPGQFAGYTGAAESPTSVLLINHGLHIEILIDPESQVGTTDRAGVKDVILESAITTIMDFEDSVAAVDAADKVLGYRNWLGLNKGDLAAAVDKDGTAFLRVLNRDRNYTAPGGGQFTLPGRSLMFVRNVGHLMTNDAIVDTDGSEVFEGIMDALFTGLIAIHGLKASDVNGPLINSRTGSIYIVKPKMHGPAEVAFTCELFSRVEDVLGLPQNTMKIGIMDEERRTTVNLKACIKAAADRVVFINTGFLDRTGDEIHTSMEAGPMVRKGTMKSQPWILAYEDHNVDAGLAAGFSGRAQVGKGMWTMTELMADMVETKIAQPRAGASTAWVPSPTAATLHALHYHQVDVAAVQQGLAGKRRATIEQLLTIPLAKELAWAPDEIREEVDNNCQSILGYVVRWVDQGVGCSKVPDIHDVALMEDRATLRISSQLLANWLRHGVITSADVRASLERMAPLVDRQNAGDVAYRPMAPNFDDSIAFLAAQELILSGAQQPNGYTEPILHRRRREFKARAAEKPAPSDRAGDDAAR

A word on the Kd: it is a measure of binding affinity in units of concentration. The sequence “GCAGAGAGAGAGAAAGTGAGAAGGGCGGGGGGGAGAGGGTGGGG [MS5]” came in with a Kd of 2.7 µM. For “GGACCAGGTGAGTGGATGCGGGTGCGGGTGGGGGTGAGGGGGGG [MS4]” the value was 0.0099 µM; for “GGGTTGTAAGAGGGAGCTGGGAGGGGTCGGGGGGGGGGGTGGC [MS20]”, 0.91 µM; for “GGTGGGATGGGGGGGGGAGGGTAGGGTGTGCAAGTAGAGGGTC [MS6]”, 0.00028 µM.
